Assay results published in patent US8741844B2, “Use of mutated antithrombins for treating or preventing coagulation disorders” (Universite Paris-Sud XI, priority 2007, dated 2014).
Numbering of substitutions follows the chain as printed. Names may count otherwise.

B1: AT-N135Q-ΔR393: human antithrombin with deletion of position 393 and substitution at 135 by Glutamine (protein, listed as Homo sapiens)
chain: HGSPVDICTAKPRDIPMNPMCIYRSPEKKATEDEGSEQKIPEATNRRVWELSKANSRFATTFYQHLADSKNDNDNIFLSPLSISTAFAMTKLGACNDTLQQLMEVFKFDTISEKTSDQIHFFFAKLNCRLYRKAQKSSKLVSANRLFGDKSLTFNETYQDISELVYGAKLQPLDFKENAEQSRAAINKWVSNKTEGRITDVIPSEAINELTVLVLVNTIYFKGLWKSKFSPENTRKELFYKADGESCSASMMYQEGKFRYRRVAEGTQVLELPFKGDDITMVLILPKPEKSLAKVEKELTPEVLQEWLDELEEMMLVVHMPRFRIEDGFSLKEQLQDMGLVDLFSPEKSKLPGIVAEGRDDLYVSDAFHKAFLEVNEEGSEAAASTAVVIAGSLNPNRVTFKANRPFLVFIREVPLNTIIFMGRVANPCVK
B2: AT-N135Q-ΔS394: human antithrombin with deletion of position 394 and substitution at 135 by Glutamine (protein, listed as Homo sapiens)
chain: B1 chain with S393R
B3: AT-N135Q-ΔR393-S394: human antithrombin with deletion of positions 393 and 394 and substitution at 135 by Glutamine (protein, listed as Homo sapiens)
chain: HGSPVDICTAKPRDIPMNPMCIYRSPEKKATEDEGSEQKIPEATNRRVWELSKANSRFATTFYQHLADSKNDNDNIFLSPLSISTAFAMTKLGACNDTLQQLMEVFKFDTISEKTSDQIHFFFAKLNCRLYRKAQKSSKLVSANRLFGDKSLTFNETYQDISELVYGAKLQPLDFKENAEQSRAAINKWVSNKTEGRITDVIPSEAINELTVLVLVNTIYFKGLWKSKFSPENTRKELFYKADGESCSASMMYQEGKFRYRRVAEGTQVLELPFKGDDITMVLILPKPEKSLAKVEKELTPEVLQEWLDELEEMMLVVHMPRFRIEDGFSLKEQLQDMGLVDLFSPEKSKLPGIVAEGRDDLYVSDAFHKAFLEVNEEGSEAAASTAVVIAGLNPNRVTFKANRPFLVFIREVPLNTIIFMGRVANPCVK

Molecular target: T1, factor Xa (Homo sapiens, UniProt P00742)
T1 construct: purchased Kordia
Experiment: Kinetic assay of factor Xa inhibition by antithrombins in a purified system (chromogenic substrate, continuous or discontinuous)
Type: biochemical
Conditions: with or without pentasaccharide; compared with plasma / wild type antithrombin
Experimental: Briefly, factor Xa is incubated with an excess of tested antithrombins (corresponding to plasma antithrombin, or wild type antithrombin or mutated antithrombins and varying in each assay realized) in the presence or absence of pentasaccharide (Fondaparinux sodique, Arixtra®, GlaxoSmithKline) and the factor Xa residual activity is measured as a function of time. The pentasaccharide is added in excess in the reaction media so that every tested antithrombin is bound to the pentasaccharide. In the absence of pentasaccharide, polybrene is added in order to neutralize any sulfated glycosaminoglycan that may be present in the reaction media. The residual factor Xa activity is measured as the increase in absorbance at 405 nm resulting from cleavage of the chromogenic substrate (S2765 or S2222, Chromogenix) using a microplate reader (Dynatech MR 5000). The analysis of the data is performed using the GraphPad Prism version 3 software. Absorbance recording is continuous or discontinuous according to the expected inhibition rate constant (kon).
The inhibition rate constant (kon) is the second order rate constant given in M^−1·s^−1 which define the velocity of stable complex formation between protease and antithrombin (higher is the kon value, faster will the complex be established).
When the expected kon is lower than 10^4 M^−1·s^−1 the discontinuous method is used. Factor Xa (0.2 to 1 μM, or 0.1 to 1 μM) is incubated with tested antithrombins (0.2 to 10 μM, or 1 to 10 μM) in the presence of pentasaccharide (10 to 100 μM) or polybrene (100 μg/ml) in a final volume of 10 μl for 10 seconds to 5 hours, or 10 seconds to 24 hours. At the end of this incubation period, 190 μl of kinetic buffer containing 200 μM substrate is added and absorbance at 405 nm is recorded.
The kinetic rate constant (k) is estimated by fitting the substrate hydrolysis initial rate curve to equation (1) using non-linear regression with v0 and v∞ being the substrate hydrolysis rate at time to or too respectively. […] (1)
The inhibition rate constant (kon) is calculated from the rate constant (k) using equation (2) where AT is the tested antithrombin concentration. k=AT·kon (2)
When the expected kon is higher than 10^4 M^−1·s^−1′ the continuous method is used. The tested antithrombin (0.01 to 1 μM, or 0.1 to 1 μM) is incubated with the substrate (200 μM) in the presence of pentasaccharide or polybrene in a final volume of 100 μL, or 190 μl, and the reaction is started by addition of 100 μL, or 10 μL, of factor Xa (2 nM or 10 nM). The rate constant (k) is obtained by fitting the substrate hydrolysis curve to equation (3) or (3′) using non-linear regression analysis where A0 is the absorbance at t0, and vi and vs are respectively the initial and final rates of substrate hydrolysis in the absence of tested antithrombin. A405=A0+vi·(1−exp(−k·t))/k. (3) Equation (3′) is also used, particularly in presence of plasma. A405=A0+vs*t+(vi−vs)*(1−exp(−k·t))/k. (3′)
The inhibition rate constant (kon) is calculated from the kinetic constant (k) using equation (4) that takes into account the competitive effect of the substrate, with S being the initial substrate concentration, Km, the Michaelis constant for factor Xa-substrate interaction, AT the tested antithrombin concentration. k=(kon/(1+S/Km))·[AT] (4)
Mutated antithrombins and wild type AT inhibitory activity are measured in the same conditions and compared with plasma AT inhibitory activity.

T1 sequence (P00742 235-488 limits assumed): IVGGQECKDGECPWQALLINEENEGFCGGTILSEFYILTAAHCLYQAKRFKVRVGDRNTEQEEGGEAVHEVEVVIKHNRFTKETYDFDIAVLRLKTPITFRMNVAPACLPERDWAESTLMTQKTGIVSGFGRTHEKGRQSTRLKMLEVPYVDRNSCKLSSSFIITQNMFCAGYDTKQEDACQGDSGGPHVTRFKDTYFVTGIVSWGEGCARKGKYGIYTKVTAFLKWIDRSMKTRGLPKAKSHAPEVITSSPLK
T1 sequence (P00742 41-179 partner limits assumed): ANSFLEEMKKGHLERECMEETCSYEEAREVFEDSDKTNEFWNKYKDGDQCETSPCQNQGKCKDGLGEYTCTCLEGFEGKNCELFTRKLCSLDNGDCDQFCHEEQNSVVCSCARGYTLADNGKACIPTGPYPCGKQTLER

factor Xa inhibitory activity	Molecule
negligible	B1
negligible	B2
negligible	B3

Tested on: pentasaccharide bound murine antithrombin (plasma anti-Xa activity)
Experiment: Anti factor Xa assay in mouse plasma supplemented with Fondaparinux
Type: biochemical
Conditions: not given
Experimental: During the animal experimentation (see detailed protocol below), human mutated antithrombins compete with murine antithrombin for their binding to the pentasaccharide. Thus, preliminary in vitro assays are performed to determine the human mutated antithrombin concentration necessary to compete with the murine antithrombin present in mouse plasma supplemented with Fondaparinux.
These experiments are performed as described in section II-b, using mouse plasma instead of human plasma.

Molecule	effect on anti-Xa activity of pentasaccharide contained in mouse plasma
B1	significant decrease
B2	significant decrease
B3	significant decrease

Tested on: not listed separately
Experiment: Heparin affinity column elution with NaCl gradient
Type: binding
Conditions: not given
Experimental: Conditioned media are thawed, pooled, salt concentration adjusted to 0.4 M NaCl and then applied on an heparin immobilized column (Hitrap Heparin 5 ml or Heparin-sepharose CL6B 50 ml, GE Biological) equilibrated with 10 mM Tris, or with 20 mM phosphate buffer, 0.4 M NaCl and 0.1 mM EDTA, pH 7.4. The bound proteins are eluted in the same buffer with a gradient from 0.4 M to 2 M NaCl. The fractions eluted from 0.8 M NaCl and more contained only wild type antithrombin or mutated antithrombins with high heparin affinity. […] The collected fractions are pooled and the salt concentration is decreased either by over night dialysis against 10 mM Tris, or 20 mM phosphate, and 0.1 M NaCl, pH 7.4 at 4° C. or applied on an HiPrep 26/10 desalting column equilibrated with 10 mM Tris, or 20 mM phosphate, and 0.1 M NaCl, pH 7.4. The antithrombin is then concentrated by ion exchange chromatography using a “Resource Q” 1 ml column (GE, Biological) equilibrated with 10 mM Tris, or 20 mM phosphate, and 0.1 M NaCl, pH 7.4 and eluted in the same buffer with a NaCl gradient from […] to 0.5 M or 20 mM to 0.5 M. The antithrombin concentration in each elution fraction is estimated by absorbance at 280 nm with an absorption coefficient ε=0.65 g^−1·l·cm^−1 and the integrity of purified wild type antithrombin or mutated antithrombins is tested by western blotting using the same couple of antibodies as described before, and electrophoresis on 10% acrylamide/bisacrylamide gel in native and denaturing conditions followed by coomassie brilliant blue R-250 staining (FIG. 4). Then, the antithrombin preparation is aliquoted and stored at −80° C. before use for functional assay. The same procedure is used to purify plasma antithrombin (used as internal reference) from human plasma.

Molecule	elution from heparin affinity column compared with wild type antithrombin
B1	higher ionic strength than wild type antithrombin
B2	higher ionic strength than wild type antithrombin
B3	higher ionic strength than wild type antithrombin
